The values that follow come from patent US20230093708A1, “PROTEIN NANOPARTICLE DESIGN AND APPLICATION” (Duke University, priority 2020, published 2023).

The nature of data set [1]: Cryo-TEM micelle core size, inter-core spacing and aspect ratio. It is filed as physicochemical. The method, then: Using the data from FIG. 18, particularly the longest straight line of an individual particle and a corresponding perpendicular measurement were made to describe the aspect ratio of particles observed.
Cryo-TEM experiments were performed at Duke University's Shared Materials Instrumentation Facility (Durham, N.C.). Lacey holey carbon grids (Ted Pella, Redding, Calif.) were glow discharged in a PELCO EasiGlow Cleaning System (Ted Pella, Redding, Calif.). A 3 μL drop (10 μM RLPn-ELP80) was deposited onto the grid, blotted for 3 s with an offset of −3 mm, and vitrified in liquid ethane using the Vitrobot Mark III (FEI, Eindhoven, Netherlands). Prior to vitrification, the sample chamber was maintained at 15° C. and 100% relative humidity to prevent sample evaporation. Grids were transferred to a Gatan 626 cryoholder (Gatan, Pleasanton, Calif.) and imaged with a FEI Tecnai G2 Twin TEM (FEI, Eindhoven, Netherlands), operating at 80 keV. Feature sizes and spacing distances were measured in ImageJ by manual measurement of at least 25 particles.

Data set [2] is described as follows: Static and dynamic light scattering (SLS/DLS) of block co-polypeptides. The format is physicochemical. Here is the method: Key parameters of interest are the hydrophilicity of the corona-forming block, the hydrophilicity of the core block, the overall length of the co-polypeptide and the ratio of the two blocks. Parameters of evaluation are the size, morphology, stability, and thermoresponsive behavior. All measurements were made in 140 mM NaCl, 10 mM phosphate buffer, 3 mM KCl, pH 7.4 unless otherwise specified. Size was evaluated by the hydrodynamic radios (Rh) and radius of gyration (Rg) by dynamic light scattering (DLS) and static light scattering (SLS) respectively. Rg and Rh can be combined to yield the shape factor ρ=Rg/Rh, which provides a rough indication of the morphology of the scatterer. […] For an elongated scatterer, the shape factor depends upon the aspect ratio. A combination of temperature dependent turbidity and DLS was utilized to determine the phase behavior of the block co-polypeptides. Cryogenic transmission electron microscopy (Cryo-TEM) was utilized to evaluate the morphology and provide crucial insight into the hydration of the core/corona chains. Stability of the assembled nanostructure was determined by a shift in the I1/I3 fluorescent bands of pyrene as described previously.
Static and dynamic light scattering measurements (SLS/DLS) were performed using an ALV/CGS-3 goniometer system (Langen, Germany). Samples for the ALV/CGS-3 goniometer system were prepared at a concentration of 10 μM in PBS and filtered through 0.45 μm Millex-GV filters into a 10 mm disposable borosilicate glass tube (Fischer). Simultaneous SLS and DLS measurements were obtained at 15° C. of the ELP for angles between 30°-150° at 5° increments, with each angle consisting of 3 runs for 15 s. SLS experiments were only conducted for self-assembling block co-polypeptides, since the molecular weight of a single block co-polypeptide chain is already known, and the Rg of a single chain is likely near or below the detection limit of the SLS instrument. The differential refractive index (dn/dc) was determined by measuring the refractive index at different concentrations using an Abbemat 500 refractometer (Anton Paar, Graz, Austria). DLS data were analyzed by fitting the autocorrelation function with a cumulant fit, using the built-in ALV software. Hydrodynamic radius (Rh) was plotted against angle and extrapolated to zero. SLS data were analyzed by partial Zimm plots using ALVSTAT software in order to determine the Rg and molecular weight (MW).

B1: RLP40-ELP160: RLP-ELP block co-polypeptide, 40 core and 160 corona repeats (protein)
chain: QYPSDGRGQYPSDGRGQYPSDGRGQYPSDGRGQYPSDGRGQYPSDGRGQYPSDGRGQYPSDGRGQYPSDGRGQYPSDGRGQYPSDGRGQYPSDGRGQYPSDGRGQYPSDGRGQYPSDGRGQYPSDGRGQYPSDGRGQYPSDGRGQYPSDGRGQYPSDGRGQYPSDGRGQYPSDGRGQYPSDGRGQYPSDGRGQYPSDGRGQYPSDGRGQYPSDGRGQYPSDGRGQYPSDGRGQYPSDGRGQYPSDGRGQYPSDGRGQYPSDGRGQYPSDGRGQYPSDGRGQYPSDGRGQYPSDGRGQYPSDGRGQYPSDGRGQYPSDGRGGAGVPGGGVPGAGVPGGGVPGAGVPGGGVPGAGVPGGGVPGAGVPGGGVPGAGVPGGGVPGAGVPGGGVPGAGVPGGGVPGAGVPGGGVPGAGVPGGGVPGAGVPGGGVPGAGVPGGGVPGAGVPGGGVPGAGVPGGGVPGAGVPGGGVPGAGVPGGGVPGAGVPGGGVPGAGVPGGGVPGAGVPGGGVPGAGVPGGGVPGAGVPGGGVPGAGVPGGGVPGAGVPGGGVPGAGVPGGGVPGAGVPGGGVPGAGVPGGGVPGAGVPGGGVPGAGVPGGGVPGAGVPGGGVPGAGVPGGGVPGAGVPGGGVPGAGVPGGGVPGAGVPGGGVPGAGVPGGGVPGAGVPGGGVPGAGVPGGGVPGAGVPGGGVPGAGVPGGGVPGAGVPGGGVPGAGVPGGGVPGAGVPGGGVPGAGVPGGGVPGAGVPGGGVPGAGVPGGGVPGAGVPGGGVPGAGVPGGGVPGAGVPGGGVPGAGVPGGGVPGAGVPGGGVPGAGVPGGGVPGAGVPGGGVPGAGVPGGGVPGAGVPGGGVPGAGVPGGGVPGAGVPGGGVPGAGVPGGGVPGAGVPGGGVPGAGVPGGGVPGAGVPGGGVPGAGVPGGGVPGAGVPGGGVPGAGVPGGGVPGAGVPGGGVPGAGVPGGGVPGAGVPGGGVPGAGVPGGGVPGAGVPGGGVPGAGVPGGGVPGAGVPGGGVPGAGVPGGGVPGAGVPGGGVPGAGVPGGGVPGAGVPGGGVPGAGVPGGGVPGAGVPGGGVPGAGVPGGGVPGAGVPGGGVPGAGVPGGGVPGAGVPGGGVPGAGVPGGGVP
B1: in data set [1], the “core radius (cryo-TEM)” value is reported as 11.0 nm and the “spacing between particle cores (cryo-TEM)” value came out at 22.3 nm. Besides, the “Spacing (nm)” value in data set [1] (Table 4, inter-core spacing, mean ± standard deviation) turned out to be 22.3 ± 5.2 nm. Besides, the “Core radius (nm)” value in data set [1] (Table 4, mean ± standard deviation) was determined as 11.0 ± 1.6 nm. In data set [2], the “hydrodynamic radius (Rh)” value is 92.3 nm, the “radius of gyration (Rg)” value is 70.8 nm and the “shape factor / form factor (Rg/Rh)” value was 0.8. Also, in data set [2] (Table 3, 10 μM in PBS, 15 °C), the Nagg is reported as 246, the “Rg(nm)” value amounted to 70.8 nm and the “Rh (nm)” value came to 92.3 nm. The ρ in data set [2] (Table 3, shape factor Rg/Rh) amounted to 0.8.
